Biological target: T1, GST-TBX3(1-342) TBX3dm (human, UniProt O15119 1-342, G129A;R130S)
T1 sequence: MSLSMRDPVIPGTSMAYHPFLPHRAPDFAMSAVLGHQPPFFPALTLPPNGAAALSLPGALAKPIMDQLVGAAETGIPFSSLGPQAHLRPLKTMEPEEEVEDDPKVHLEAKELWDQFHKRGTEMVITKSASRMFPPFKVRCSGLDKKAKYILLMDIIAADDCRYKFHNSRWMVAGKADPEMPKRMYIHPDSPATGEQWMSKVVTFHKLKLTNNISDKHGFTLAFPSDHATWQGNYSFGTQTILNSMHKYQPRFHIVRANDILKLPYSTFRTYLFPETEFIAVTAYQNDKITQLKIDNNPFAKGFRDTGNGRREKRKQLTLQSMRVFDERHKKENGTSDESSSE
Experiment: EMSA; 20 mM HEPES (pH not given), 100 mM KCl, 1 mM DTT, 0.25 mM EDTA, 0.01% NP-40, 1 mM MgCl2, 8% glycerol, 100 ug/ml BSA, 1 mg/ml poly(dI-dC), 15 C, 1 h; 6% gel, 1x
Conditions: protein: recombinant; tags: N-terminal GST (pGEX-2TK); label: 5' digoxigenin; blunt; self-complementary palindrome

B1: palindromic Brachyury/T-box consensus oligonucleotide (24 bp) (dsDNA)
DNA 1: AATTTCACACCTAGGTGTGAAATT
DNA 2: AATTTCACACCTAGGTGTGAAATT
binding result: no binding

— article PMC4625211, “Putative Breast Cancer Driver Mutations in TBX3 Cause Impaired Transcriptional Repression”
